The text below walks through data of publication PMC5434554, “Structural similarities and functional differences clarify evolutionary relationships between tRNA healing enzymes and the myelin enzyme CNPase” (BMC Biochemistry, 2017).

Substrate in this data set: NC(=O)c1ccc[n+]([C@@H]2O[C@H](COP(=O)(O)OP(=O)(O)OC[C@H]3O[C@@H](n4cnc5c(N)ncnc54)[C@@H]4OP(=O)(O)O[C@@H]43)[C@@H](O)[C@H]2O)c1
The data set can be described thus: purified protein. The conditions noted are these: 100 mM MES pH 6.0, 3 mM MgCl2, 5 mM glucose-6-phosphate, 25 °C, CPDase site.

One may read the Km as the substrate concentration at which the rate is half of its maximum. The kcat is the number of substrate molecules converted per active site and unit of time at saturation. As a reminder, the kcat/Km is the second-order rate constant that governs catalysis at low substrate concentration.

B1: ScTrl1 CPDase (Saccharomyces cerevisiae S288C) (protein)
chain: GQADSSLTNAKQILNEIHKAYPILVPEIPKDDEIETAFRRSLDYKPTVRKIVGKGNNNQQKTPKLIKPTYISAKIENYDEIIELVKRCIASDAELTEKFKHLLASGKVQKELHITLGHVMSSREKEAKKLWKSYCNRYTDQITEYNNNRIENAQGSGNNQNTQVKTTDKLNFRLEKLCWDEKIIAIVVELSKDKDGCIIDENNEKIKGLCCQNKIPHITLCKLESGVKAVYSNVLCEKVESAEVDENIKVVKLDNSKEFVGSVYLNF
Consider B1, for which the Km worked out at 237 ± 27 µM, the turnover number (kcat) was 275 s⁻¹ and the kcat/Km was found to be 1.16e+06 M⁻¹ s⁻¹.

B2: ScTrl1 PNK/CPDase (Saccharomyces cerevisiae S288C) (protein)
chain: RTKFLIFPISVIGCGKTTTSQTLVNLFPDSWGHIQNDDITGKDKSQLMKKSLELLSKKEIKCVIVDRNNHQFRERKQLFEWLNELKEDYLVYDTNIKVIGVSFAPYDKLSEIRDITLQRVIKRGNNHQSIKWDELGEKKVVGIMNGFLKRYQPVNLDKSPDNMFDLMIELDFGQADSSLTNAKQILNEIHKAYPILVPEIPKDDEIETAFRRSLDYKPTVRKIVGKGNNNQQKTPKLIKPTYISAKIENYDEIIELVKRCIASDAELTEKFKHLLASGKVQKELHITLGHVMSSREKEAKKLWKSYCNRYTDQITEYNNNRIENAQGSGNNQNTQVKTTDKLNFRLEKLCWDEKIIAIVVELSKDKDGCIIDENNEKIKGLCCQNKIPHITLCKLESGVKAVYSNVLCEKVESAEVDENIKVVKLDNSKEFVGSVYLNF
For B2, the Km was 420 ± 35 µM, the catalytic constant (kcat) is 317 s⁻¹ and the kcat/Km came out at 750000 M⁻¹ s⁻¹.
